Experimental data: IntAct's records for PubMed 17141806

B1: Disintegrin and metalloproteinase domain-containing protein 22 (Homo sapiens), Q9P0K1-1 (parent)
chain: MQAAVAVSVPFLLLCVLGTCPPARCGQAGDASLMELEKRKENRFVERQSIVPLRLIYRSGGEDESRHDALDTRVRGDLGGPQLTHVDQASFQVDAFGTSFILDVVLNHDLLSSEYIERHIEHGGKTVEVKGGEHCYYQGHIRGNPDSFVALSTCHGLHGMFYDGNHTYLIEPEENDTTQEDFHFHSVYKSRLFEFSLDDLPSEFQQVNITPSKFILKPRPKRSKRQLRRYPRNVEEETKYIELMIVNDHLMFKKHRLSVVHTNTYAKSVVNMADLIYKDQLKTRIVLVAMETWATDNKFAISENPLITLREFMKYRRDFIKEKSDAVHLFSGSQFESSRSGAAYIGGICSLLKGGGVNEFGKTDLMAVTLAQSLAHNIGIISDKRKLASGECKCEDTWSGCIMGDTGYYLPKKFTQCNIEEYHDFLNSGGGACLFNKPSKLLDPPECGNGFIETGEECDCGTPAECVLEGAECCKKCTLTQDSQCSDGLCCKKCKFQPMGTVCREAVNDCDIRETCSGNSSQCAPNIHKMDGYSCDGVQGICFGGRCKTRDRQCKYIWGQKVTASDKYCYEKLNIEGTEKGNCGKDKDTWIQCNKRDVLCGYLLCTNIGNIPRLGELDGEITSTLVVQQGRTLNCSGGHVKLEEDVDLGYVEDGTPCGPQMMCLEHRCLPVASFNFSTCLSSKEGTICSGNGVCSNELKCVCNRHWIGSDCNTYFPHNDDAKTGITLSGNGVAGTNIIIGIIAGTILVLALILGITAWGYKNYREQRQLPQGDYVKKPGDGDSFYSDIPPGVSTNSASSSKKRSNGLSHSWSERIPDTKHISDICENGRPRSNSWQGNLGGNKKKIRGKRFRPRSNSTETLSPAKSPSSSTGSIASSRKYPYPMPPLPDEDKKVNRQSARLWETSI

Variants of: B1
Conditions: with hck_human HCK

| Variant | effect of a mutation on the interaction |
| --- | --- |
| Y882A | decreasing interaction |
